According to patent publication US20100184697A1 (U S OF AMERICA AS REPRESENTED BY THE SECRETAR, published 2010):
Square brackets hold non-standard residues; d marks the D form. Ends that are not written are not given here. Nle = CCCC[C@H](N)C(=O)O; Dab = NCC[C@H](N)C(=O)O

target: STAT3 (human, UniProt P40763 2-770, limits assumed); test: cell-based or functional assay
Sequence (P40763 2-770 limits assumed): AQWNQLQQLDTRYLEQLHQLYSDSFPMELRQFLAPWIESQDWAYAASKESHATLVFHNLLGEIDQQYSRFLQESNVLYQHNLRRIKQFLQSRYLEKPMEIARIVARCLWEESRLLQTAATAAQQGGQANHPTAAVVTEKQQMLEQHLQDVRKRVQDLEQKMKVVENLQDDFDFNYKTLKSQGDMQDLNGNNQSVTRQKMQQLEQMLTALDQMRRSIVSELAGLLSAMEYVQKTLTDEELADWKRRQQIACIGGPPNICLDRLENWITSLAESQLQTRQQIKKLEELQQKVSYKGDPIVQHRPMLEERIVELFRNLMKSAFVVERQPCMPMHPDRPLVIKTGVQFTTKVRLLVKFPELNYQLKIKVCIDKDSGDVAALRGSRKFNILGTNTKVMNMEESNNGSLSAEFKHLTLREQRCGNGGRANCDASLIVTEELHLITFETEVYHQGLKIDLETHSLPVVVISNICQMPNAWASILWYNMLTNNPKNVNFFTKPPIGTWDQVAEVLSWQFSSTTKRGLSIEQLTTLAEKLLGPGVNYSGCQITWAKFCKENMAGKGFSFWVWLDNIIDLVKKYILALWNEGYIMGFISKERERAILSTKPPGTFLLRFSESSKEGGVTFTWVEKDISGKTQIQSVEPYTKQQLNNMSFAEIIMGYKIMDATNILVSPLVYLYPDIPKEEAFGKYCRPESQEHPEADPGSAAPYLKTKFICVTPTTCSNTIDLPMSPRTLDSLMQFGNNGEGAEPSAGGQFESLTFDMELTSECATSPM

| Activity, % of control (luciferase reporter, GAS or STAT3 element, MCF-7 cells) | Binder |
| --- | --- |
| 43 % of control | LDTRYLEQLH[Dab]LYRQIKIWFPNRR[Nle]KWKK-NH2 (N-terminus assumed; SMILES CCCC[C@H](NC(=O)[C@H](CCCNC(=N)N)NC(=O)[C@H](CCCNC(=N)N)NC(=O)[C@H](CC(N)=O)NC(=O)[C@@H]1CCCN1C(=O)[C@H](Cc1ccccc1)NC(=O)[C@H](Cc1c[nH]c2ccccc12)NC(=O)[C@@H](NC(=O)[C@H](CCCCN)NC(=O)[C@@H](NC(=O)[C@H](CCC(N)=O)NC(=O)[C@H](CCCNC(=N)N)NC(=O)[C@H](Cc1ccc(O)cc1)NC(=O)[C@H](CC(C)C)NC(=O)[C@H](CCN)NC(=O)[C@H](Cc1c[nH]cn1)NC(=O)[C@H](CC(C)C)NC(=O)[C@H](CCC(N)=O)NC(=O)[C@H](CCC(=O)O)NC(=O)[C@H](CC(C)C)NC(=O)[C@H](Cc1ccc(O)cc1)NC(=O)[C@H](CCCNC(=N)N)NC(=O)[C@@H](NC(=O)[C@H](CC(=O)O)NC(=O)[C@@H](N)CC(C)C)[C@@H](C)O)[C@@H](C)CC)[C@@H](C)CC)C(=O)N[C@@H](CCCCN)C(=O)N[C@@H](Cc1c[nH]c2ccccc12)C(=O)N[C@@H](CCCCN)C(=O)N[C@@H](CCCCN)C(N)=O) [Hel2H-Pen] |
| 100 % of control | DTRYLEQLHKLYSRQIKIWFPNRR[Nle]KWKK-NH2 (N-terminus assumed; SMILES CCCC[C@H](NC(=O)[C@H](CCCNC(=N)N)NC(=O)[C@H](CCCNC(=N)N)NC(=O)[C@H](CC(N)=O)NC(=O)[C@@H]1CCCN1C(=O)[C@H](Cc1ccccc1)NC(=O)[C@H](Cc1c[nH]c2ccccc12)NC(=O)[C@@H](NC(=O)[C@H](CCCCN)NC(=O)[C@@H](NC(=O)[C@H](CCC(N)=O)NC(=O)[C@H](CCCNC(=N)N)NC(=O)[C@H](CO)NC(=O)[C@H](Cc1ccc(O)cc1)NC(=O)[C@H](CC(C)C)NC(=O)[C@H](CCCCN)NC(=O)[C@H](Cc1c[nH]cn1)NC(=O)[C@H](CC(C)C)NC(=O)[C@H](CCC(N)=O)NC(=O)[C@H](CCC(=O)O)NC(=O)[C@H](CC(C)C)NC(=O)[C@H](Cc1ccc(O)cc1)NC(=O)[C@H](CCCNC(=N)N)NC(=O)[C@@H](NC(=O)[C@@H](N)CC(=O)O)[C@@H](C)O)[C@@H](C)CC)[C@@H](C)CC)C(=O)N[C@@H](CCCCN)C(=O)N[C@@H](Cc1c[nH]c2ccccc12)C(=O)N[C@@H](CCCCN)C(=O)N[C@@H](CCCCN)C(N)=O) [Hel2A-Pen] |
| 100 % of control | LDTRYLEQLHKLYSRQIKIWFPNRR[Nle]KWKK-NH2 (N-terminus assumed; SMILES CCCC[C@H](NC(=O)[C@H](CCCNC(=N)N)NC(=O)[C@H](CCCNC(=N)N)NC(=O)[C@H](CC(N)=O)NC(=O)[C@@H]1CCCN1C(=O)[C@H](Cc1ccccc1)NC(=O)[C@H](Cc1c[nH]c2ccccc12)NC(=O)[C@@H](NC(=O)[C@H](CCCCN)NC(=O)[C@@H](NC(=O)[C@H](CCC(N)=O)NC(=O)[C@H](CCCNC(=N)N)NC(=O)[C@H](CO)NC(=O)[C@H](Cc1ccc(O)cc1)NC(=O)[C@H](CC(C)C)NC(=O)[C@H](CCCCN)NC(=O)[C@H](Cc1c[nH]cn1)NC(=O)[C@H](CC(C)C)NC(=O)[C@H](CCC(N)=O)NC(=O)[C@H](CCC(=O)O)NC(=O)[C@H](CC(C)C)NC(=O)[C@H](Cc1ccc(O)cc1)NC(=O)[C@H](CCCNC(=N)N)NC(=O)[C@@H](NC(=O)[C@H](CC(=O)O)NC(=O)[C@@H](N)CC(C)C)[C@@H](C)O)[C@@H](C)CC)[C@@H](C)CC)C(=O)N[C@@H](CCCCN)C(=O)N[C@@H](Cc1c[nH]c2ccccc12)C(=O)N[C@@H](CCCCN)C(=O)N[C@@H](CCCCN)C(N)=O) [Hel2B-Pen] |
| 71 % of control | LDTRYLEQLHKLYRQIKIWFPNRR[Nle]KWKK-NH2 (N-terminus assumed; SMILES CCCC[C@H](NC(=O)[C@H](CCCNC(=N)N)NC(=O)[C@H](CCCNC(=N)N)NC(=O)[C@H](CC(N)=O)NC(=O)[C@@H]1CCCN1C(=O)[C@H](Cc1ccccc1)NC(=O)[C@H](Cc1c[nH]c2ccccc12)NC(=O)[C@@H](NC(=O)[C@H](CCCCN)NC(=O)[C@@H](NC(=O)[C@H](CCC(N)=O)NC(=O)[C@H](CCCNC(=N)N)NC(=O)[C@H](Cc1ccc(O)cc1)NC(=O)[C@H](CC(C)C)NC(=O)[C@H](CCCCN)NC(=O)[C@H](Cc1c[nH]cn1)NC(=O)[C@H](CC(C)C)NC(=O)[C@H](CCC(N)=O)NC(=O)[C@H](CCC(=O)O)NC(=O)[C@H](CC(C)C)NC(=O)[C@H](Cc1ccc(O)cc1)NC(=O)[C@H](CCCNC(=N)N)NC(=O)[C@@H](NC(=O)[C@H](CC(=O)O)NC(=O)[C@@H](N)CC(C)C)[C@@H](C)O)[C@@H](C)CC)[C@@H](C)CC)C(=O)N[C@@H](CCCCN)C(=O)N[C@@H](Cc1c[nH]c2ccccc12)C(=O)N[C@@H](CCCCN)C(=O)N[C@@H](CCCCN)C(N)=O) [Hel2A-2-Pen] |
| 56 % of control | LDTRYLEQLHQLYSRQIKIWFPNRR[Nle]KWKK-NH2 (N-terminus assumed; SMILES CCCC[C@H](NC(=O)[C@H](CCCNC(=N)N)NC(=O)[C@H](CCCNC(=N)N)NC(=O)[C@H](CC(N)=O)NC(=O)[C@@H]1CCCN1C(=O)[C@H](Cc1ccccc1)NC(=O)[C@H](Cc1c[nH]c2ccccc12)NC(=O)[C@@H](NC(=O)[C@H](CCCCN)NC(=O)[C@@H](NC(=O)[C@H](CCC(N)=O)NC(=O)[C@H](CCCNC(=N)N)NC(=O)[C@H](CO)NC(=O)[C@H](Cc1ccc(O)cc1)NC(=O)[C@H](CC(C)C)NC(=O)[C@H](CCC(N)=O)NC(=O)[C@H](Cc1c[nH]cn1)NC(=O)[C@H](CC(C)C)NC(=O)[C@H](CCC(N)=O)NC(=O)[C@H](CCC(=O)O)NC(=O)[C@H](CC(C)C)NC(=O)[C@H](Cc1ccc(O)cc1)NC(=O)[C@H](CCCNC(=N)N)NC(=O)[C@@H](NC(=O)[C@H](CC(=O)O)NC(=O)[C@@H](N)CC(C)C)[C@@H](C)O)[C@@H](C)CC)[C@@H](C)CC)C(=O)N[C@@H](CCCCN)C(=O)N[C@@H](Cc1c[nH]c2ccccc12)C(=O)N[C@@H](CCCCN)C(=O)N[C@@H](CCCCN)C(N)=O) [Hel2-Pen] |
| 89 % of control | Ac-DTRYLEQLHALYRQIKIWFPNRR[Nle]KWKK-NH2 (SMILES CCCC[C@H](NC(=O)[C@H](CCCNC(=N)N)NC(=O)[C@H](CCCNC(=N)N)NC(=O)[C@H](CC(N)=O)NC(=O)[C@@H]1CCCN1C(=O)[C@H](Cc1ccccc1)NC(=O)[C@H](Cc1c[nH]c2ccccc12)NC(=O)[C@@H](NC(=O)[C@H](CCCCN)NC(=O)[C@@H](NC(=O)[C@H](CCC(N)=O)NC(=O)[C@H](CCCNC(=N)N)NC(=O)[C@H](Cc1ccc(O)cc1)NC(=O)[C@H](CC(C)C)NC(=O)[C@H](C)NC(=O)[C@H](Cc1c[nH]cn1)NC(=O)[C@H](CC(C)C)NC(=O)[C@H](CCC(N)=O)NC(=O)[C@H](CCC(=O)O)NC(=O)[C@H](CC(C)C)NC(=O)[C@H](Cc1ccc(O)cc1)NC(=O)[C@H](CCCNC(=N)N)NC(=O)[C@@H](NC(=O)[C@H](CC(=O)O)NC(C)=O)[C@@H](C)O)[C@@H](C)CC)[C@@H](C)CC)C(=O)N[C@@H](CCCCN)C(=O)N[C@@H](Cc1c[nH]c2ccccc12)C(=O)N[C@@H](CCCCN)C(=O)N[C@@H](CCCCN)C(N)=O) [Hel2A-3-Pen] |
| 53 % of control | DTRYLEQLH[Dab]LYRQIKIWFPNRR[Nle]KWKK-NH2 (N-terminus assumed; SMILES CCCC[C@H](NC(=O)[C@H](CCCNC(=N)N)NC(=O)[C@H](CCCNC(=N)N)NC(=O)[C@H](CC(N)=O)NC(=O)[C@@H]1CCCN1C(=O)[C@H](Cc1ccccc1)NC(=O)[C@H](Cc1c[nH]c2ccccc12)NC(=O)[C@@H](NC(=O)[C@H](CCCCN)NC(=O)[C@@H](NC(=O)[C@H](CCC(N)=O)NC(=O)[C@H](CCCNC(=N)N)NC(=O)[C@H](Cc1ccc(O)cc1)NC(=O)[C@H](CC(C)C)NC(=O)[C@H](CCN)NC(=O)[C@H](Cc1c[nH]cn1)NC(=O)[C@H](CC(C)C)NC(=O)[C@H](CCC(N)=O)NC(=O)[C@H](CCC(=O)O)NC(=O)[C@H](CC(C)C)NC(=O)[C@H](Cc1ccc(O)cc1)NC(=O)[C@H](CCCNC(=N)N)NC(=O)[C@@H](NC(=O)[C@@H](N)CC(=O)O)[C@@H](C)O)[C@@H](C)CC)[C@@H](C)CC)C(=O)N[C@@H](CCCCN)C(=O)N[C@@H](Cc1c[nH]c2ccccc12)C(=O)N[C@@H](CCCCN)C(=O)N[C@@H](CCCCN)C(N)=O) [Hel2I-Pen] |
